Experimental data from paper PMC6366716.

Molecular target: Fbw7α (UniProt Q969H0)
Test: anti-HA co-IP, anti-FLAG blot
Details: reference: wild-type HA-SV40 LT; sites T701

For “SV40 LT (from UniProt P03070) HA-SV40 LT T701A”, which “binding against the reference” value is on record?
Its value is “lost”.
